From US20260115256A1 (HANGZHOU SCIWIND BIOSCIENCES, published 2026)
Each block holds one binder with its values, some of them ahead of it. *1 amine or outer side, *2 acyl side, *3 side chain or, on linkers, in order; H or OH if unused. Bridges are numbered along the chain shown (N, C = ends). Where no end group is shown, it is not given here. Side-chain parts run from the residue outwards. [ ]: non-standard residue; d: D form. The star is where a group is joined. C20 diacid = O=C(O)CCCCCCCCCCCCCCCCCCC(=O)*; C18 diacid = O=C(O)CCCCCCCCCCCCCCCCC(=O)*; γGlu = O=C(O)[C@H](CCC(=O)[*:2])N[*:1]; Hyp = O=C(O)[C@@H]1C[C@@H](O)CN1; AEEA = NCCOCCOCC(=O)O

Molecular target: T1, human amylin receptor (AMY3) on CHO-K1/Ga15/AMY3 cells (human, UniProt P30988 25-474; O60896 24-148)
T1 sequence (looked up) 1: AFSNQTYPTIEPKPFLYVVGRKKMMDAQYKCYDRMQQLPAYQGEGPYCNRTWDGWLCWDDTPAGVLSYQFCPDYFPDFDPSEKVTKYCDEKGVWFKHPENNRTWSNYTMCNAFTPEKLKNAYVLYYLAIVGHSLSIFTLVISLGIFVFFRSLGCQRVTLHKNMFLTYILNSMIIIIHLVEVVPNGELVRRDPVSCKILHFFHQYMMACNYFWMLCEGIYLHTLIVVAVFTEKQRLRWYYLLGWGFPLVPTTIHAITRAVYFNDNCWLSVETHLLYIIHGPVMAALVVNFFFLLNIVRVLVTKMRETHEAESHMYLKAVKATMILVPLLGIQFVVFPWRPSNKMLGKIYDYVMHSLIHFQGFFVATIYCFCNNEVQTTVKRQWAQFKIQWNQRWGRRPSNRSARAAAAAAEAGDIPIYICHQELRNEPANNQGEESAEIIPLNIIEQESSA
T1 sequence (looked up) 2: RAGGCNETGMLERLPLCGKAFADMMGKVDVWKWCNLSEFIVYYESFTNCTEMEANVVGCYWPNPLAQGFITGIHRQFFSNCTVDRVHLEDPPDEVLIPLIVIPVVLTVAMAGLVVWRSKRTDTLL
Experiment: cell-based or functional assay

Binder: RCNTATCATQRLADFLRHSSNNLGK([AEEA-γGlu-C18 diacid])ILPPTNVGSNT[Hyp]-NH2 (disulfide 2-7 (inferred)) [PD121]
EC50, CRE-luciferase assay: 0.018 nM

Binder: RCNTATCATQRLADFLRHK([AEEA-γGlu-C20 diacid])SNNLGPILPPTNVGSNT[Hyp]-NH2 (disulfide 2-7 (inferred)) [PD118]
EC50, CRE-luciferase assay: 0.032 nM

Binder: RCNTATCATQRLAEFLRHSSNNLK([γGlu-C20 diacid])PILPPTNVGSNTY-NH2 (disulfide 2-7 (inferred)) [PD017]
EC50, CRE-luciferase assay: 0.772 nM

Binder: RCNTATCATQRLADFLRHSSNNLGK([AEEA-γGlu-C20 diacid])ILPPTNVGSNT[Hyp]-NH2 (disulfide 2-7 (inferred)) [PD120]
EC50, CRE-luciferase assay: 0.023 nM

Binder: RCNTATCATQRLADFLRHK([AEEA-γGlu-C18 diacid])SNNLGPILPPTNVGSNT[Hyp]-NH2 (disulfide 2-7 (inferred)) [PD119]
EC50, CRE-luciferase assay: 0.024 nM

Binder: RCNTATCATQRLADFLRHSK([AEEA-γGlu-C18 diacid])NNLGPILPPTNVGSNT[Hyp]-NH2 (disulfide 2-7 (inferred)) [PD117]
EC50, CRE-luciferase assay: 0.014 nM

Results, then the binder that gave them:

EC50, CRE-luciferase assay: 0.01 nM
Binder: {C18 diacid-γGlu-AEEA}-KCNTATCATQRLADFLRHSSNNLGPILPPTNVGSNT[Hyp]-NH2 (disulfide 2-7 (inferred)) [PD125]

EC50, CRE-luciferase assay: 0.022 nM
Binder: {C20 diacid-γGlu}-KCNTATCATQRLADFLRHSSNNLRPILPPTNVGSNT[Hyp]-NH2 (disulfide 2-7 (inferred)) [PD158]

EC50, CRE-luciferase assay: 0.008 nM
B1: PD124 (peptide)
peptide: {C18 diacid-γGlu}-KCNTATCATQRLADFLRHSSNNLGPILPPTNVGSNT[Hyp]-NH2
modifications: disulfide 2-7 (inferred); not fully specified; printed as KCNTATCATQRLADFLRHSSNNLGPILPPTNVGSNT-trans-Hyp-NH2

EC50, CRE-luciferase assay: 0.028 nM
Binder: {C18 diacid-γGlu-AEEA-AEEA}-KCNTATCATQRLADFLRHSSNNLGPILPPTNVGSNT[Hyp]-NH2 (disulfide 2-7 (inferred)) [PD126]

EC50, CRE-luciferase assay: 0.037 nM
Binder: {C20 diacid-γGlu}-KCNTATCATQRLADFLRHSSNNLHPILPPTNVGSNT[Hyp]-NH2 (disulfide 2-7 (inferred)) [PD159]

EC50, CRE-luciferase assay: 0.068 nM
B2: PD123 (peptide)
peptide: {C20 diacid-γGlu-AEEA-AEEA}-KCNTATCATQRLADFLRHSSNNLGPILPPTNVGSNT[Hyp]-NH2
modifications: disulfide 2-7 (inferred); not fully specified; printed as KCNTATCATQRLADFLRHSSNNLGPILPPTNVGSNT-trans-Hyp-NH2

EC50, CRE-luciferase assay: 0.048 nM
B3: PD122 (peptide)
peptide: {C20 diacid-γGlu-AEEA}-KCNTATCATQRLADFLRHSSNNLGPILPPTNVGSNT[Hyp]-NH2
modifications: disulfide 2-7 (inferred); not fully specified; printed as KCNTATCATQRLADFLRHSSNNLGPILPPTNVGSNT-trans-Hyp-NH2

EC50, CRE-luciferase assay: 0.029 nM
Binder: {C20 diacid-γGlu}-KCNTATCATQRLANFLVHSSNNFGPILPPTNVGSNTY-NH2 (ends and bridges not checked) [PD156]
